According to US8778635B2, “Thermostable proteins and methods making and using thereof” (Becton, Dickinson and Company, priority 2006, dated 2014):
Positions count from the first letter of the chain named. Numbers in names are those of the source.

B1: W183C(1, 3, 5, 10): W183C (SEQ ID NO:4) with N39I, G82E, Q83K, N84D, Q175E, Q177H, L178M, N259E and N260S (protein)
chain: ADTRIGVTIYKYDDNFMSVVRKAIEQDAKAAPDVQLLMIDSQNDQSKQNDQIDVLLAKGVKALAINLVDPAAAGTVIEKAREKDVPVVFFNKEPSRKALDSYDKAYYVGTDSKESGIIQGDLIAKHWAANQGWDLNKDGQIQFVLLKGEPGHPDAEARTTYVIKELNDKGIKTEELHMDTAMCDTAQAKDKMDAWLSGPNANKIEVVIANNDAMAMGAVEALKAHNKSSIPVFGVDALPEALALVKSGALAGTVLNDAESQAKATFDLAKNLADGKGAADGTNWKIDNKVVRVPYVGVDKDNLAEFSKK
B2: Modified protein 1: 3M-GGBP (SEQ ID NO:3) with substitution N39I (protein)
chain: ADTRIGVTIYKYDDNFMSVVRKAIEQDAKAAPDVQLLMIDSQNDQSKQNDQIDVLLAKGVKALAINLVDPAAAGTVIEKARGQNVPVVFFNKEPSRKALDSYDKAYYVGTDSKESGIIQGDLIAKHWAANQGWDLNKDGQIQFVLLKGCPGHPDAEARTTYVIKELNDKGIKTEQLQLDTAMWDTAQAKDKMDAWLSGPNANKIEVVIANNDRMAMGAVEALKAHNKSSIPVFGVDASPEALALVKSGALAGTVLNDANNQAKATFDLAKNLADGKGAADGTNWKIDNKVVRVPYVGVDKDNLAEFSKK
B3: Modified protein 10: 3M-GGBP (SEQ ID NO:3) with substitutions N259E, N260S (protein)
chain: B2 chain with I39N, N259E, N260S
B4: Modified protein 7: 3M-GGBP (SEQ ID NO:3) with substitutions G198S, P199S, N200K (protein)
chain: B2 chain with I39N, G198S, P199S, N200K
B5: Modified protein 3: 3M-GGBP (SEQ ID NO:3) with substitutions G82E, Q83K, N84D (protein)
chain: B2 chain with I39N, G82E, Q83K, N84D
B6: Modified protein 6: 3M-GGBP (SEQ ID NO:3) with substitutions Q175I, Q177E (protein)
chain: B2 chain with I39N, Q175I, Q177E
B7: Modified protein 8: 3M-GGBP (SEQ ID NO:3) with substitution N226G (protein)
chain: B2 chain with I39N, N226G
B8: Modified protein 4: 3M-GGBP (SEQ ID NO:3) with substitution N130D (protein)
chain: B2 chain with I39N, N130D
B9: Modified protein 5: 3M-GGBP (SEQ ID NO:3) with substitutions Q175E, Q177H, L178M (protein)
chain: B2 chain with I39N, Q175E, Q177H, L178M
B10: Modified protein 13: 3M-GGBP (SEQ ID NO:3) with substitution N302T (protein)
chain: B2 chain with I39N, N302T
B11: Modified protein 12: 3M-GGBP (SEQ ID NO:3) with substitutions N283D, W284L (protein)
chain: B2 chain with I39N, N283D, W284L
B12: Modified protein 9: 3M-GGBP (SEQ ID NO:3) with substitution N226K (protein)
chain: B2 chain with I39N, N226K
B13: Modified protein 11: 3M-GGBP (SEQ ID NO:3) with substitutions K270Y, N271S (protein)
chain: B2 chain with I39N, K270Y, N271S

Tests used:
[1] = Fluorescence assay of glucose binding (glucose titration, Kd and fluorescence response)
Description: Dye-protein fluorophore (N,N′-dimethyl-N-(iodoacetyl)-N′-(7-nitrobenz-2-oxa-1,3-diazol-4-yl)ethylenediamine designated IANBD) or acrylodan coupling was performed as described by the manufacturer (Molecular Probes).
Briefly, 0.5 ml of 3M-GGBP (1-2 mg/ml) was treated with 2.5 molar excess of dithiothreitol for 30 min. A10-fold molar excess solution of IANBD in DMSO (0.5 mg/100 uL) was then added. While protected from light, the protein and dye were gently mixed for 4 h at 25° C. before the unreacted dye was removed by Nap-5 column chromatography (Amersham Biosciences).
Binding constants were determined by titration of increasing concentrations of glucose into a 0.1 μM protein in PBS and monitoring the change in fluorescence. The Kd was determined from the following relationships as adapted from Pisarchick and Thompson (Pisarchick, M. L. and Thompson, N. L. Biophys. J. (1990), 58, 1235-1249):
[formula] where F is fluorescence intensity, Finf is fluorescence at infinity, F0 is fluorescence at zero
[formula] where [Glc]free is the concentration of free glucose and [Glc]tot and [Prot]tot are the total concentrations of glucose and protein, respectively. For the SM4, the ratio of the area under the fluorescence curve from 514-540 nm to the area under the curve at 450-470 nm was used in place of fluorescence intensity in the equations above. […]

[2] = Circular dichroism melting temperature (Tm), CD signal at 222 nm versus temperature; assay type: physicochemical; design: key to + ΔTm / − ΔTm: Tm difference in °C from reference 3M-GGBP; details: for increase of Tm over the reference protein (in words): among the thirteen modified GGBPs, reference 3M-GGBP; for + ΔTm: increase of Tm over reference protein 3M-GGBP; for + ΔTm / − ΔTm: CD, PBS; for Previously Tested, See - Table II: ΔTm: repeated from Table II, modified 3M-GGBP versus 3M-GGBP; for − ΔTm: decrease of Tm versus reference protein 3M-GGBP
Description: Circular Dichroism (CD) spectra were preformed on a JASCO J-810. Samples of purified fluorophore-labeled proteins were exhaustively dialyzed into phosphate buffered saline (PBS) (comprised of 137 mM NaCl, 10 mM phosphate and 2.7 mM KCl, pH 7.4). The loss of secondary structure of 3M-GGBP and W183C-GGBP was observed by recording the CD signal at 222 nm as a function of temperature. During the experiment, the temperature of the sample changed at a rate of ˜1° C./min between 20 and 80° C. The apparent melting temperature at the midpoint of the transition (Tm) was obtained by fitting the experimental data points (CD signal versus temperature) with a sigmoidal function.

[3] = Storage stability of purified / labeled protein; assay type: physicochemical; details: acrylodan-labeled
Description: The modified GGBP were expressed from E. coli strain Sg13009 following standard protocols (Qiagen). After induction, bacteria were lysed using Bugbuster protein extraction reagent (Novagen) and purified by IMAC using Talon cobalt^2+ resin (Clontech). The purified protein in solution was filtered through 100 kDa cutoff filter and then concentrated using a 10 kDa cutoff filter (Millipore). The protein (1-2 mg/ml) was dialyzed at 4° C. into a solution containing 1M NaCl, 10 mM Tris-HCl, and 50 mM NaPO4 (pH 8) and stored at 4° C. Under these conditions the protein was active for at least six months. The yield from the purification was approximately 10 mg/l.
After labeling with acrylodan the SM4 was transferred to a buffer for frozen storage. The protein was dialyzed against a solution of 0.01M MES, 30 mM glucose (pH 5.5-5.7) for 24 h with three changes of buffer. After dialysis the protein was quantified and diluted to a 100 μM solution using the same buffer. The vials were then placed directly into a −70° C. freezer for storage. The protein is stable for at least 3 months under these conditions.
To lyophilize the SM4 protein, the protein solution was dialyzed against ammonium bicarbonate (50 mM, pH 7) for 24 h with three changes of buffer. The protein was passed through a 0.2 um Supor filter (Pall) and was aliquoted into amber vials (2 mg/vial). […]

| Molecule | + ΔTm [2] | Previously Tested, See - Table II: ΔTm [2] | − ΔTm [2] | other results |
| --- | --- | --- | --- | --- |
| W183C-acrylodan: reference W183C-GGBP labeled with acrylodan | – | – | – | Kd ([1]; glucose titrated into 0.1 μM protein in PBS): 19.6 ± 10%; Fluorescent Response ([1]; glucose, labeled protein): 3.4 ± 8%; Tm* ([2]; Tm determined in PBS, fluorophore-labeled protein): 39.8 ± 2% |
| B1 | – | – | – | time the protein is stable, frozen storage ([3]; 100 μM in 0.01M MES, 30 mM glucose (pH 5.5-5.7), −70° C.): at least 3 months; time the protein is stable, lyophilized ([3]; lyophilized from ammonium bicarbonate (50 mM, pH 7)): at least 6 months; Tm greater than that of the reference protein (W183C) ([2]; FIG. 1, protocol of Example 2): about 9.4 °C; melting temperature ([2]; without the termini additions present, in PBS): about 55.4 °C |
| B2 | 1 | +1 | – | increase of Tm over the reference protein (in words) [2]: greatest increase of Tm |
| B3 | 3.6 | – | – | increase of Tm over the reference protein (in words) [2]: greatest increase of Tm |
| B4 | 0.5 | +0.5 | – | – |
| B5 | 1.5 | – | – | increase of Tm over the reference protein (in words) [2]: greatest increase of Tm |
| B6 | – | – | 0.3 | – |
| B7 | 0.9 | – | – | – |
| B8 | – | −5.2 | 5.2 | – |
| B9 | 3 | – | – | increase of Tm over the reference protein (in words) [2]: greatest increase of Tm |
| B10 | – | – | 0.2 | – |
| B11 | – | −3.7 | 3.7 | – |
| B12 | 0.3 | – | – | – |
| B13 | – | −3.5 | 3.5 | – |
